From a protein production outcome set (Wang et al. 2014)

Experiment: label from the status in PepcDB records

Sequence	protein production
MVKDKQKAIFSENLNSYIAKSEKTQLEIAKSIGVSPQTFNTWCKGIAIPRMGKVQALADYFNINKSDLIEDKKLNIDTVPIESGYTIPVLGRVAAGYGKEAVEEVIGQIEISPSMAAKGDYFGLLIKGDSMIPTLYDGDTVIVERTDDAESGDLVIALVNGSDATCKRLQKYAEGIALIPQNPVYEPMRFTESEIDTTPVKILGKVVEMRRKFLEHHHHHH	not failed
MNAIPRVALVWLLVAQVLVILPHLAYMPLWIAAMWLGCAAWRVQVFRMRAGYPRAWVKLALALLAGAGVWLSRGSLVGLDAGAVLLIAAFILKLVEMKTRRDALVLVFLGFFAVVVGYLFDDGFLAALYSLLPVTALLAALIGLQQSAFASRPWPTLRLAGGLLLQALPLMLLLFLFFPRLGPLWSLPMPGNKGVTGLSESMAPGDIAELGRSAELAFRVRFEGALPPREQLYWRALTMERFDGRRWAQAPQWSGEDALHWQKRGPELRYDVIMQPSSQPWLFALDVAQTDQTDTRLMSDFHLQRRQPVEQRLFYRVSSWPQALRESSIDPRTRWRNLQLPMHGNPRARALADELRQAHAQPQALVAALLQRFNHEPFAYTLKPPATGADGVDDFLFDTRSGFCAHYAGAMAFVLRAAGIPARVVAGYQGGELNPAGNYLLVHQFDAHAWVEYWQPEQGWLSVDPTYQVAPERIEQGLEQALAGDSEYLADAPLSPLRYRGLPWLNDMRLAWDSLNYGWQRWVLAYQGEQQGAFLQRWFGGLDPTRLGLLLGAAAILSVGLLALFLLKPWQGRGDLRSRQLRRFERLLEMHGLRRSPGEGLRSYGERAARVLPAQAPAIAAFVGAFEAQRYGHGGADDPGLRLRALRRALPWRLVRTPTRDGRGEEQA	failed
MSHYNPEQLNFVNNHRNNVKEGYFYKNNLLKENNNKMESSKNCIMVPLINNPSHSENNFSKNNRDENINEEKSKYQFEYQNKIIQVPELKYVDKMVYDPVIIEKVKYVPKEVIKYNIIKKPVIKNIITEKKVDVLQVKEKISFKEEEIVEDVYNYVDKDLNTKWNESQYDNEMYKDLTKKKNYIGQNHLLPNNINKMGHINDRTYKHINNNITNLLEPFGPQIDVEENKIIENVFVPNVEKVIEVNKKIDIPINLPVPYIVPKPKIIDVDVPVFKFNDKYVPVPVSKKIIPKITWTDKIYQVDCLIEKPYLVYHNIIKMVPTDSKITVREYPKGIKKINPEELYEVDNLALWMRVNADLKQEHDQMKNEKYETNKKKGKGETEQLDDNISSDHTCECSESYETYEKLSNEEFNSSNEETTIKSSNENILDTLPLHPGHPLEFIHLQNKWINQDTTNIPDMYDQKYLDAHRNAVFNLTTQMPREAEVEAKQLLYIQKKLQQEETL	failed
MGNFLRRSCAVHPASGDGGRGRHVDEPPQQRPSSVRIKVRMRRDQLEELLYLARRGDQSDDGGKIGFLILKECMEGRLPASVLGSGGDVRSQRRGSYMVYRRLGSITEE	failed
MDMNTLLSLSWHLMVPEFIILGAAILLSICDLFFKLNHRYVALGAIASVVLAIVSLITLYSEPTGDILNGSFVLDGFSKGFKTLLLGGAALILCIAMSDDKKNPIEDKGEYYYLFLMALLGAMFMASSVDFITLFVGLELLSLSSYILVGIRKKNLTSNEAAMKYVINGGIGTAITLFGMSYLYGITGSTNIVDMQKVFAGELAGGIQLLLALAFLLLLVGLSFKIATVPFHMWAPDVYEGAATPVTAFLGTISKIAGFLLIIRLFLMVFASVSVQGDTQSLYGRMSIYIAVLASITMIIGNVVALKQYNVKRLFAYSGIAHAGYLLVPLVALSPFTMDSMWFYMLAYMLMNIGAFAIIHGLILQSDKENITIFTGLYKRSPFTAIVMTIFILSLAGIPGTAGFIGKINIFLGALHVEPAHYVLASIMMGTTVISFVYYFRILQQMFFRTGEVEEKIRLPLNIKVVMSLCAISIVILGIMPMIGYNFFYEYFPLMKDFFFLGNVVQ	failed
MARKTAQSKRGVFNMDRLTSMAVFVKAVDLGSFAAAAEALGLSGPMVGKHVRSLEDRLGVQLINRTTRRQSLTEFGYVYYERCRVVLAEAQAADALASDQLSEPRGKLRVTMPVHFGRHCVTPVLLELARKYPALELDLSFNDRIIDLAEDGFDLSIRTGVLEDRAGLIARRVARQPMIVCASPSYLESHGCPEAPEDLAQHAAVVYRRSGPVSPWLFPRPGQSSSEVTPLHRFRLDDLDAIADAAARGLGLAWLPYWLVRGRIEAGTLVRLLPEQPPFLYDCHAVWLQTPHLPLKVRVAVDALAAQLPSFMT	failed
MVVRQIRALLSSLLWAWRRARLQGRSAFQLVRACLREGAKGPRHFARRMAAYASGGSASPPPVSLDAYESWHSALPQLEVPADSGMISVIIPVCNTPELFLREAIESVRTQTYQNWEICIHDDASNEPHVGRILAEFKKRIPNLRVTRSETRSGIAATTNAALASARGRWVTFLDHDDVLDRNALAAVVDCHIKTGSAVVYTDHDMLGEDGRLRNPYFKPDWNYDLFLAQMYLGHLVSFEHDLIKRVGLTRSECDGSQDYDLVLRCVAAGAKVGHVPRVLYHWRMHAGSTAANADSKPYAHDSGKRAIQYHVDAVYPGAQVEDGPHLFCYDVRYPYAQHAPKASIIIPTRDGLDLLRPCIESIQGRTDYTNFEIIVVDNGSKDPATLEWLDAMSNEPWFRVLQADVPFNWSALNNLAAASAEGEVLVFLNNDTEVASADWLQRLVENALRPDVGACGALLLYADGSIQHAGVVVGMGGWADHVFKGQQPIHHQHLFVSPILRREVLAVTGACVAISRANFDAIGGFDESFVVCGSDVELCLRAMANGKRTVYVPEAILIHHESKTRDPRVIPESDFVRSAQAYSPYRESGDPFYSPNLDYMSPSPALRGAQADA	failed
MRVLAIRHVEIEDLGMMEDIFREKNWSFDYLDTPKGEKLERPLEEYSLVVLLGGYMGAYEEEKYPFLKYEFQLIEEILKKEIPFLGICLGSQMLAKVLGASVYRGKNGEEIGWYFVEKVSDNKFFREFPDRLRVFQWHGDTFDLPRRATRVFTSEKYENQGFVYGKAVGLQFHIEVGARTMKRWIEAYKDELEKKKIDPRLLLETAEREEKVLKGLLRSLLERMVES	not failed
MTVPHPESVGEPGIAVRAPARRRSAWHGQAPVVAVVALGGGIGGTARYAAALLWPTQSGGFPWTTFWVNVVGCAVIGVFMVVITDVWPAHRLVRPFFGTGVLGGFTTFSTYAVDIQKLVDAGHPRTALAYLAATLLAALAAVRLAATAARRVLVRRRR	failed
MNLPNKLTVLRIFMIPIFIIIVSVPMDWGTISFGDTTLAVTQLVGAIIFAVASFTDWLDGKIARAQGLVTNFGKFADPLADKMLVMTAFIVLVGQGKVPAWIVAIIVCRELAVTGLRLLLVEHGEVMAAAWPGKVKTATQMVAIILLFINNIPFSALHLPLDQIMLYACLIFTIYSGVDYFAKNKDVFKGSM	failed
MGEPNLQLSLLYVIAIFTSAILLSARMSLLITLLAVIAVIYQRFVGSLFDYNNLNTIGNSALLAFLFFVVHRIGQIAVQRFKLLEALTFHQSIELYQLQNINRYILEQIEEGYLVLDENYDIVVSNPAACSLLGIPPQFANEKYPLAKWHADLFEILKFGDLKEGDRFIFESRLSAYSINIKVQHLLVPQQTLTLLILQDAQQINQQAQQLKLAALGQLSASIAHEIRNPLAAIVQANELLKDSDPEQQNTLRHMIGKQTKRIDSIVQDTLGLARSERTHPIQIDVKHFIDTLLEEDLFDVKHSIQLKISDSSLKFLFDEKQLRQVMINLVRNALRHNATDSPYITINIHSQTNKIYIDVIDYGEGVSKRDISQLFKPFFSTEINGTGLGLYLSHSFCEANHAKLTYVEQKQGACFRIECPIIY	failed
MERIRWLYGFLACILIAILLAPLQIMAQGEFRTSDQPLVYYIPVEQEVERGLEAFLQRSLDSAVEEGADHIVLEINTPGGRVDAAGNMARALRETDIPITAYVIDQALSAGAYIALNADEIVMAPGSTMGSAAVIDSAGNAADEKAQSYWLAEMRNAAEYNDRDPKYALAMADRSIEIPELDISNEELLTLTASQALEVNYAEAIASNRAELLEHLQIDNAFEQEMEVSFAEKLARFVTNPLIIPILLSIGSLGLVLELYSPGFGVPGIMGISALLLFFFGHLIAGFAGYEAMILFIAGFLLILIEVFMPGFGLFGILGIAGMIGGMLLASFSTAWMLVSLGISAVVTTVVAIITFRYFGSRGPWKKMILTESTSSEKGYITNETRQELVGLIGQSLTPLRPSGSGLFGEERLDVVSEGGYIEQGRKIKVVSTSGSRIVVRETDELEHHHHHH	failed
MRGFFSNPWIRWALSLAFLGVILFFLRDQLDFLKMGIQQIRHVSPVGVALTMVALVLSFVAMARVMQIMLKAGGSPATLKATTALTFAANSWSATLPGGPAFSAILTYKVQRSWGASAVLCSWFFLLSSALSTVWLVALGVIAVFYMGASLNLWSLIATFIAMVGLSGAVYWAANNPDSLARWVRKLTKNREWGFVEKLLGSIEQLRSVSLTGPQFAASTAWSLGNRLFDAISLWICIWAVTGTAPMFEPEPNNTTIAGVLLAYTTAKIAGSIQATPGGIGPIEAAYIAALVATGMTAVEAAGAVIIYRLCSFIIMAIVGWVIYFIYFTPQGLKANESLDVEQDTINSDSNRQSAIERPDT	failed
MKPTLFVLAAGMGSRYGSLKQLDGIGPGGDTIMDYSVYDAIRAGFGRLVFVIRHSFEKEFREKILTKYEGRIPVELVFQELDRLPEGFSCPEGREKPWGTNHAVLMGRDAIREPFAVINADDFYGRNGFEVLARKLMTLEGKQGEYCMVGYRVGNTLSESGGVSRGVCQVDEKHLLTGVVERTGIERTDGTISFRDETGKICTLAEDAPVSMNMWGFTPDYFDYSEELFINFLNAHGQEPKSEFFIPFVVNDLIRSGRASVEVLDTTARWFGVTYSDDRPGVVAKLRELTEAGEYPTKLF	not failed
MECAEKVEAEIPGQAGRRAGKPSRTYYLEVYGCSLSEFDALIMASRLEEAGYRRVARPEDADVILVNTCAVRLDTEQRIAERLEKLRLQLPDRKYVVAGCLVKARPGLVARLVPEASLLAPQAVERVLDAVDALESGRRLVVLDGRRDTRSMPQLPITDAVVTVMIQEGCLGDCSFCITKVARRQVRSYSPRVIVERVREAVEKGAREIRLTGTDVAVYGVDLPGKPNLADLVAAILEKVEGDYRIRVGMMTPDQVEPYLDSLLDVYRDERVYKYFHLPVQSGDDEVLKIMKRNYTVSEYKAIHRRIKSRFPDAMIATDIIVGHPGETWEAFWNTVRLVEELRFEKVHLAQYSLRPHTEAASMEQVPDSVKKERSRILGKIVAEIGLEINGSYVGRRVRALVTERSWREGSMTGRLDNYTPIILPYEERAMGRWVYAEVEEATFFDLRSSKFEPAPLEHHHHHH	failed
MQASASNSSSYTVNASVLHVRAGSSTSHDIISRVYNGQSLNVIGEENGWYKININGKTGFVSGEFVSKNGTSNSNVSTTGGKNKVTADVLRVRTAPNTSSSVSGRVYEGQTLNVIGQENGWVKINHNGQVGYVSGEFVSGVSSNAGSSNSNTNNNNQESVKPASGNYTVNVSSLRVRTGPSTSHTTVGSVTKGQVVQVVGEVQDWFKINYAGQTAYVSKDYVTKGGSSDNVTQGNNQNNNQNNNVTVQTGGTYVVNATSLRVRTGPATYHSVIGGVLNGTTLNVIGSEGSWFKVNYQGKTGYVSSEFMKFVKGGTTTPEQPKQPEQPNQGAIGDYYINASALNVRSGEGTNYRIIGALPQGQKVQVISENSGWSKINYNGQTGYIGTRYLSKTPVGGAVDNNKPNNNQNNNQNNNNNTGNNSGNSSSILAYAKGMQGVPYVWGGTSANGVDCSGYIYHVFKKFGHNISRQSVAGYWGSLPQTSNPQPGDLIYFQNTYKSGPSHMGIYLGGGSFIQAGDKGVAIASLSNSYWKSHFLGYTKAPLEHHHHHH	not failed
MNNPKPCEWKSNELSRGYIADYKAFNFVDGEGVRCSLYVSGCPFHCEGCYNKAAQSFKYGKPYTKELEDDILKDIGHESVQGLTLLGGEPFLNTATCLSIVKRIRATYGETKDIWSWTGYTWDEMMQETADKLELLSLIDVLVDGRFEQKLFDPNLAFRGSSNQRIIDVQKSLAAGEVVLYELLEHHHHHH	failed
MKSIVIYESVHHGNTEKVAKAMVEELNAECIRAQDLNLEKLKDYDLIGFGSGIFYNKFHKNILKLVGNIGKVNGKKAVVFSTSGQGRESSNKSLRKQLEEKGFKVIGSFACKGFDTFGPLKLLGGIGKGRPDQKDIEEAKKFVLGLEKNLLEHHHHHH	failed
